Measurements published in publication PMC6279372 (The Journal of Cell Biology, 2018).

Molecular target: the molecule itself
Assay: nonreducing SDS-PAGE

B1: His6-SipA^1-242 (domain or fragment)
chain: MVTSVRTQPPVIMPGMQTEIKTQATNLAANLSAVRESATATLSGEIKGPQLEDFPALIKQASLDALFKCGKDAEALKEVFTNSNNVAGKKAIMEFAGLFRSALNATSDSPEAKTLLMKVGAEYTAQIIKDGLKEKSAFGPWLPETKKAEAKLENLEKQLLDIIKNNTGGELSKLSTNLVMQEVMPYIASCIEHNFGCTLDPLTRSNLTHLVDKAAAKAVEALDMCHQKLTQEQGTSVGREAR
  binding result: binds
